Reference: publication PMC12436196

Target: NPM1 (UniProt P06748)
Experiment: Co-IP of Flag-MST4 with HA-NPM1
Settings: reference: Flag-MST4 wild type; sites T178

Substance: MST4 (from UniProt Q9P289) Flag-MST4 T178A
- binding against the reference: weaker
